# Tests used:
# [1] = target: T1, VEGF (VEGF 1-165 aa, R&D Systems 293-VE-010) (UniProt P15692 27-191); experiment: Direct bind ELISA, VEGF coated on plate; VEGF domain C-term., HC long/LC long
# T1 construct: bought reagent; also called vascular endothelial growth factor
# [2] = target: T1, VEGF (VEGF 1-165 aa, R&D Systems …); experiment: Direct bind ELISA, VEGF coated on plate; VEGF domain C-term., HC short/LC long
# [3] = target: T1, VEGF (VEGF 1-165 aa, R&D Systems …); experiment: Direct bind ELISA, VEGF coated on plate; VEGF domain N-term., HC short/LC short
# [4] = target: T1, VEGF (VEGF 1-165 aa, R&D Systems …); experiment: Direct bind ELISA, VEGF coated on plate; VEGF domain N-term., HC long/LC short
# T1 sequence (P15692 other isoform, or with tags, fused parts or gaps limits assumed): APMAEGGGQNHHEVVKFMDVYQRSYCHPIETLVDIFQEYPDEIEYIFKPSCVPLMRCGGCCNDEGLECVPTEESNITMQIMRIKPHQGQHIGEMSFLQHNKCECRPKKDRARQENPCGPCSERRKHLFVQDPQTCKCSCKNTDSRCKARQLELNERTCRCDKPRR
binder,measurement,setting,value
"DVD497 (bispecific antibody, human IgG1, kappa, DVD-Ig; N-term; AB072 (DLL4), C-term; AB071 (VEGF); HC linker long, LC linker long; also called DVD-Ig DVD497; DVD497H/DVD497L) heavy: not shown light: DIQMTQSSSYLSVSLGGRVTITCKASDHINNWLAWYQQKPGNAPRLLISGATSLETGVPSRFSGSGSGKDYTLSITSLQTEDVATYYCQQYWSIPLTFGAGTKLELKRTVAAPSVFIFPPDIQMTQSPSSLSASVGDRVTITCRASQVIRRSLAWYQQKPGKAPKLLIYAASNLASGVPSRFSGSGSGTDFTLTISSLQPEDFATYYCQQSNTSPLTFGQGTKVEIKRTVAAPSVFIFPPSDEQLKSGTASVVCLLNNFYPREAKVQWKVDNALQSGNSQESVTEQDSKDSTYSLSSTLTLSKADYEKHKVYACEVTHQGLSSPVTKSFNRGEC",EC50,[1],858 nM
"DVD509 (bispecific antibody, human IgG1, kappa, DVD-Ig; N-term; AB072 (DLL4), C-term; AB071 (VEGF); HC linker short, LC linker long; also called DVD-Ig DVD509; DVD509H/DVD509L) heavy: not shown light: DIQMTQSSSYLSVSLGGRVTITCKASDHINNWLAWYQQKPGNAPRLLISGATSLETGVPSRFSGSGSGKDYTLSITSLQTEDVATYYCQQYWSIPLTFGAGTKLELKRTVAAPSVFIFPPDIQMTQSPSSLSASVGDRVTITCRASQVIRRSLAWYQQKPGKAPKLLIYAASNLASGVPSRFSGSGSGTDFTLTISSLQPEDFATYYCQQSNTSPLTFGQGTKVEIKRTVAAPSVFIFPPSDEQLKSGTASVVCLLNNFYPREAKVQWKVDNALQSGNSQESVTEQDSKDSTYSLSSTLTLSKADYEKHKVYACEVTHQGLSSPVTKSFNRGEC",EC50,[2],121 nM
"DVD519 (bispecific antibody, human IgG1, kappa, lambda, DVD-Ig; N-term; AB073 (DLL4), C-term; AB070 (VEGF); HC linker long, LC linker long; also called DVD-Ig DVD519; DVD519H/DVD519L) heavy: not shown light: QAVVTQESALTTSPGETVTLTCRSSTGAVTTSNYANWVQEKPDHLFTGLIGGTNNRAPGVPARFSGSLIGDKAALTITGAQTEDEAIYFCALWYSNHWVFGGGTKLTVLGQPKAAPSVTLFPPDIQMTQSPSSLSASVGDRVTITCRASQDVSTAVAWYQQKPGKAPKLLIYSASFLYSGVPSRFSGSGSGTDFTLTISSLQPEDFATYYCQQSYTTPPTFGQGTKVEIKRTVAAPSVFIFPPSDEQLKSGTASVVCLLNNFYPREAKVQWKVDNALQSGNSQESVTEQDSKDSTYSLSSTLTLSKADYEKHKVYACEVTHQGLSSPVTKSFNRGEC",EC50,[1],77.2 nM
"DVD531 (bispecific antibody, human IgG1, kappa, lambda, DVD-Ig; N-term; AB073 (DLL4), C-term; AB070 (VEGF); HC linker short, LC linker long; also called DVD-Ig DVD531; DVD531H/DVD531L) heavy: not shown light: QAVVTQESALTTSPGETVTLTCRSSTGAVTTSNYANWVQEKPDHLFTGLIGGTNNRAPGVPARFSGSLIGDKAALTITGAQTEDEAIYFCALWYSNHWVFGGGTKLTVLGQPKAAPSVTLFPPDIQMTQSPSSLSASVGDRVTITCRASQDVSTAVAWYQQKPGKAPKLLIYSASFLYSGVPSRFSGSGSGTDFTLTISSLQPEDFATYYCQQSYTTPPTFGQGTKVEIKRTVAAPSVFIFPPSDEQLKSGTASVVCLLNNFYPREAKVQWKVDNALQSGNSQESVTEQDSKDSTYSLSSTLTLSKADYEKHKVYACEVTHQGLSSPVTKSFNRGEC",EC50,[2],60.4 nM
"DVD514 (bispecific antibody, human IgG1, lambda, DVD-Ig; N-term; AB070 (VEGF), C-term; AB073 (DLL4); HC linker short, LC linker short; also called DVD-Ig DVD514; DVD514H/DVD514L) heavy: not shown light: DIQMTQSPSSLSASVGDRVTITCRASQDVSTAVAWYQQKPGKAPKLLIYSASFLYSGVPSRFSGSGSGTDFTLTISSLQPEDFATYYCQQSYTTPPTFGQGTKVEIKRTVAAPQAVVTQESALTTSPGETVTLTCRSSTGAVTTSNYANWVQEKPDHLFTGLIGGTNNRAPGVPARFSGSLIGDKAALTITGAQTEDEAIYFCALWYSNHWVFGGGTKLTVLGQPKAAPSVTLFPPSSEELQANKATLVCLISDFYPGAVTVAWKADSSPVKAGVETTTPSKQSNNKYAASSYLSLTPEQWKSHRSYSCQVTHEGSTVEKTVAPTECS",EC50,[3],67.4 nM
"DVD526 (bispecific antibody, human IgG1, lambda, DVD-Ig; N-term; AB070 (VEGF), C-term; AB073 (DLL4); HC linker long, LC linker short; also called DVD-Ig DVD526; DVD526H/DVD526L) heavy: not shown light: DIQMTQSPSSLSASVGDRVTITCRASQDVSTAVAWYQQKPGKAPKLLIYSASFLYSGVPSRFSGSGSGTDFTLTISSLQPEDFATYYCQQSYTTPPTFGQGTKVEIKRTVAAPQAVVTQESALTTSPGETVTLTCRSSTGAVTTSNYANWVQEKPDHLFTGLIGGTNNRAPGVPARFSGSLIGDKAALTITGAQTEDEAIYFCALWYSNHWVFGGGTKLTVLGQPKAAPSVTLFPPSSEELQANKATLVCLISDFYPGAVTVAWKADSSPVKAGVETTTPSKQSNNKYAASSYLSLTPEQWKSHRSYSCQVTHEGSTVEKTVAPTECS",EC50,[4],96.2 nM
"DVD492 (bispecific antibody, human IgG1, kappa, DVD-Ig; N-term; AB071 (VEGF), C-term; AB072 (DLL4); HC linker short, LC linker short; also called DVD-Ig DVD492; DVD492H/DVD492L) heavy: not shown light: DIQMTQSPSSLSASVGDRVTITCRASQVIRRSLAWYQQKPGKAPKLLIYAASNLASGVPSRFSGSGSGTDFTLTISSLQPEDFATYYCQQSNTSPLTFGQGTKVEIKRTVAAPDIQMTQSSSYLSVSLGGRVTITCKASDHINNWLAWYQQKPGNAPRLLISGATSLETGVPSRFSGSGSGKDYTLSITSLQTEDVATYYCQQYWSIPLTFGAGTKLELKRTVAAPSVFIFPPSDEQLKSGTASVVCLLNNFYPREAKVQWKVDNALQSGNSQESVTEQDSKDSTYSLSSTLTLSKADYEKHKVYACEVTHQGLSSPVTKSFNRGEC",EC50,[3],8.42 nM
